Results as given in patent publication US20130231277A1 (published 2013).
Each block holds one binder with its values, some of them ahead of it.

Target: T1, ectodomain of murine βKlotho (F53 to L995 of SEQ ID NO: 218) with a C-terminal FLAG tag (UniProt Q99N32 53-995)
T1 chain: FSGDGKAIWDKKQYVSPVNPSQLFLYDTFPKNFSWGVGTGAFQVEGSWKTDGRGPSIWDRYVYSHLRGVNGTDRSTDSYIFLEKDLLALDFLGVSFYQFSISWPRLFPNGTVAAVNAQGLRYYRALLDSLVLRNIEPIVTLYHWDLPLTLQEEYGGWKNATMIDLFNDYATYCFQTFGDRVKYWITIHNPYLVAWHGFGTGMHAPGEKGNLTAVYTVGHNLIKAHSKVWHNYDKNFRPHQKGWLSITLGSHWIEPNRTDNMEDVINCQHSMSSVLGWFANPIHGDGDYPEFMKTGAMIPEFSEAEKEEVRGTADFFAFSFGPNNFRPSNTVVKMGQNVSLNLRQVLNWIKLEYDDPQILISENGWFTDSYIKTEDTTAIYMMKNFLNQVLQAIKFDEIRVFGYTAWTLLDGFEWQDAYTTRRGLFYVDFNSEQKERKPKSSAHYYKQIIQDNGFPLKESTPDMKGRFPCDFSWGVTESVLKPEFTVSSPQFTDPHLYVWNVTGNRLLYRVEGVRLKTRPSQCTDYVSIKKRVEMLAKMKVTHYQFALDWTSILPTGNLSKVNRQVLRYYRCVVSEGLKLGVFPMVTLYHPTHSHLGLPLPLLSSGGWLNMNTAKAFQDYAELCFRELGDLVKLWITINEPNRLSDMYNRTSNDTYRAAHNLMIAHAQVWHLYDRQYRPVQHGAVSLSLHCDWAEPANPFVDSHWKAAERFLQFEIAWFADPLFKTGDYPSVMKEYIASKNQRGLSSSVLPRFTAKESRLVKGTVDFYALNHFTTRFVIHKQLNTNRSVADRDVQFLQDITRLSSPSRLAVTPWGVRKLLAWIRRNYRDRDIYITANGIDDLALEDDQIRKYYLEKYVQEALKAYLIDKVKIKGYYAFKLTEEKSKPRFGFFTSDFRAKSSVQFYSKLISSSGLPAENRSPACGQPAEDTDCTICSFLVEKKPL
Test: SPR

Kd: 170 nM
B1: ligand-binding domain of human FGFR2c (N149 to E368 of SEQ ID NO: 226) (receptor)
chain: NNKRAPYWTNTEKMEKRLHAVPAANTVKFRCPAGGNPMPTMRWLKNGKEFKQEHRIGGYKVRNQHWSLIMESVVPSDKGNYTCVVENEYGSINHTYHLDVVERSPHRPILQAGLPANASTVVGGDVEFVCKVYSDAQPHIQWIKHVEKNGSKYGPDGLPYLKVLKAAGVNTTDKEIEVLYIRNVTFEDAGEYTCLAGNSIGISFHSAWLTVLPAPGREKE

Kd: 124 nM
B2: ligand-binding domain of human FGFR1c (D142 to R365 of SEQ ID NO: 221) (receptor)
chain: DNTKPNRMPVAPYWTSPEKMEKKLHAVPAAKTVKFKCPSSGTPNPTLRWLKNGKEFKPDHRIGGYKVRYATWSIIMDSVVPSDKGNYTCIVENEYGSINHTYQLDVVERSPHRPILQAGLPANKTVALGSNVEFMCKVYSDPQPHIQWLKHIEVNGSKIGPDNLPYVQILKTAGVNTTDKEMEVLHLRNVSFEDAGEYTCLAGNSIGLSHHSAWLTVLEALEER
